This is an account of results in patent US9782486B2, “Albumin conjugated temperature and pH-sensitive multi-block copolymer, a method of preparation thereof and drug delivery system using the same” (Research & Business Foundation Sungkyunkwan University, priority 2014, dated 2017).

Like-named read-outs stand apart in the source and are kept apart here.

A short description of data set [1]: Zeta potential measurement. The data set is classed as physicochemical. Conditions: solution alone, pH 7.4, 1 mg/mL, room temperature. The protocol: The zeta potential values of the PAU and PAUBSA conjugates were measured at room temperature by Metasizer Nano ZS instrument (Malvern Instrument). The solution concentrations for all samples were 1 mg/mL and their pH was adjusted to 7.4. The solutions were stabilized at room temperature for 20 minutes before measurement.

For data set [2] the following is noted: cited from earlier work.
Data set [3] can be described thus: In vivo lysozyme release, lysozyme in blood serum (ELISA). On the set-up: species or system male SD rats. The protocol:
In order to examine the in vivo release of lysozyme, a sample solution loaded with 250 μL of lysozyme was injected to male SD rats (three rats per group). At predetermined times, blood samples were collected from the caudal vein, centrifuged to obtain blood sera, and stored them at −21° C. until the next analysis. The concentration of the lysozyme in the blood sera was measured using a commercial lysozyme (LZM) ELISA kit (Cusabio, China).
In order to examine the in vivo release of lysozyme, a sample solution loaded with 250 μL of lysozyme was injected to male SD rats (three rats per group). At predetermined tunes, blood samples were collected from the caudal vein, centrifuged to obtain blood sera, and stored them at −21° C. until the next analysis. The concentration of the lysozyme in the blood sera was measured using a commercial lysozyme (LZM) ELISA kit (Cusabio, China).
Background: ELISA stands for enzyme-linked immunosorbent assay.

The mark [4] stands for this setting: single subcutaneous injection of lysozyme-loaded sample.

In data set [1], “lysozyme: chicken egg white lysozyme, model protein loaded into the hydrogels; also injected as plain solution” returned a zeta potential of 11.2 mV. Further, the “temperature up to which thermal stability is maintained” value in data set [2] (in the presence of an anionic modified polymer) was “up to 72 °C”. For the same substance, in data set [2] (up to 28 days), the “bioactivity of lysozyme released from PEG-based hydrogels and other polymeric devices” value was “about 95%”. For the same substance, the “bioactivity of lysozyme released from PEG-based hydrogels and other polymeric devices” value in data set [2] (up to 50 days) is 100%. Besides, in data set [3] (setting [4]), the “duration of lysozyme release until serum lysozyme reached the normal level” value is listed as “within nine days” and the “initial burst release of lysozyme in vivo” value is “initial burst was obviously observed”. Moreover, the “time to reach peak lysozyme level” value in data set [3] (single subcutaneous injection, 10 mg/mL lysozyme) is given as “within two days”. Moreover, the “peak lysozyme level in blood” value in data set [3] (single subcutaneous injection, 10 mg/mL lysozyme in the preparation) is “about 447 ng/mL”.
